Reference: patent publication US20160002357A1

The binders below were run against human soluble CD3 (human) (UniProt P07766) (assay: SPR Biacore).
Chain of human soluble CD3 (human) (P07766 23-126, chain 1 of 2): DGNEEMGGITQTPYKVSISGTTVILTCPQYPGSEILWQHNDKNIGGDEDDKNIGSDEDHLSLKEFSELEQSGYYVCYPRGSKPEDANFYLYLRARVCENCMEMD
Chain of human soluble CD3 (human) (P04234 22-105, chain 2 of 2, further chain): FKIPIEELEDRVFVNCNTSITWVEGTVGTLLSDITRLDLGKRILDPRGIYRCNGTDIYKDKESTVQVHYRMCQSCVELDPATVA

| Kd [nM] | koff [s⁻¹] | kon [M⁻¹ s⁻¹] | Binder |
| --- | --- | --- | --- |
| 15.9 | 0.0111 | 706000 | 180 EK-DART (bispecific antibody) chain 1: QSVVTQPPSVSAAPGQKVTISCSGSSSNIGNNYVSWYQQLPGTAPKLLIYDNNKRPSGIPDRFSGSKSGTSATLGITGLQTGDEADYYCGTWDSSLSAYVFGTGTKVTVLGGGSGGGGEVQLVESGGGLVQPGGSLRLSCAASGFTFNTYAMNWVRQAPGKGLEWVARIRSKYNNYATYYADSVKDRFTISRDDSKNSLYLQMNSLKTEDTAVYYCVRHGNFGNSYVSWFAYWGQGTLVTVSSGGCGGGKVAALKEKVAALKEKVAALKEKVAALKE chain 2: QAVVTQEPSLTVSPGGTVTLTCRSSTGAVTTSNYANWVQQKPGQAPRGLIGGTNKRAPWTPARFSGSLLGGKAALTITGAQAEDEADYYCALWYSNLWVFGGGTKLTVLGGGGSGGGGEVQLVQSGAEVKKPGASVKVSCKASGYTFTSYGISWVRQAPGQGLEWMGWISAYNGNTNYAQKLQGRVTMTTDTSTSTAYMELRSLRSDDTAVYYCATIDTANAFDIWGQGTMVTVSSGGCGGGEVAALEKEVAALEKEVAALEKEVAALEK |
| 23.1 | 0.00526 | 230000 | 178 EK-DART (bispecific antibody) chain 1: QSVLTQPPSVSAAPGQKVTISCSGSSSNIGNNYVSWYQQLPGTAPKLLIYDNNKRPSGIPDRFSGSKSGTSATLGITGLQTGDEADYYCGTWDSSLSAVVFGGGTKLTVLGGGSGGGGEVQLVESGGGLVQPGGSLRLSCAASGFTFNTYAMNWVRQAPGKGLEWVARIRSKYNNYATYYADSVKDRFTISRDDSKNSLYLQMNSLKTEDTAVYYCVRHGNFGNSYVSWFAYWGQGTLVTVSSGGCGGGKVAALKEKVAALKEKVAALKEKVAALKE chain 2: QAVVTQEPSLTVSPGGTVTLTCRSSTGAVTTSNYANWVQQKPGQAPRGLIGGTNKRAPWTPARFSGSLLGGKAALTITGAQAEDEADYYCALWYSNLWVFGGGTKLTVLGGGGSGGGGEVQLVQSGAEVKKPGASVKVSCKASGYTFTSYGISWVRQAPGQGLEWMGWISAYNGNTNYAQKLQGRVTMTTDTSTSTAYMELRSLRSDDTAVYYCATIDTANAFDIWGQGTMVTVSSGGCGGGEVAALEKEVAALEKEVAALEKEVAALEK |

These binders were tested against human soluble CD3 (human) (UniProt P07766) (assay: SPR Biacore 3000, antigen immobilised).

| Kd [nM] | koff [s⁻¹] | kon [M⁻¹ s⁻¹] | Binder |
| --- | --- | --- | --- |
| 5.19 | 0.00609 | 979000 | 20 EK-DART (bispecific antibody) chain 1: AIQMTQSPSSLSASVGDRVTITCRASQSIGKYLNWYQQIPGKAPKLLIYTASTLQTGVPSRFSGSGSGTDFTLTIVSLQPEDFATYYCQQSFNTPRTFGQGTKVEIKGGGSGGGGEVQLVESGGGLVQPGGSLRLSCAASGFTFNTYAMNWVRQAPGKGLEWVARIRSKYNNYATYYADSVKDRFTISRDDSKNSLYLQMNSLKTEDTAVYYCVRHGNFGNSYVSWFAYWGQGTLVTVSSGGCGGGKVAALKEKVAALKEKVAALKEKVAALKE chain 2: QAVVTQEPSLTVSPGGTVTLTCRSSTGAVTTSNYANWVQQKPGQAPRGLIGGTNKRAPWTPARFSGSLLGGKAALTITGAQAEDEADYYCALWYSNLWVFGGGTKLTVLGGGGSGGGGEVQLVQSGAEVKKPGASVKVSCKASGYTFTGYYMHWVRQAPGQGLEWMGRINPNSGGTNYAQKFQGRVTMTRDTSISTAYMELSRLRSDDTAVYYCAKGSGSGAFDIWGQGTMVTVSSGGCGGGEVAALEKEVAALEKEVAALEKEVAALEK |
| 22.8 | 0.00445 | 195000 | 34 EK-DART (bispecific antibody) chain 1: QSVVTQPPSVSAAPGQKVTISCSGSSSNIGNNYVSWYQQLPGTAPKLLIYDNNKRPSGIPDRFSGSKSGTSATLGITGLQTGDEADYYCGTWDSSLSAWVFGGGTKLTVLGGGSGGGGEVQLVESGGGLVQPGGSLRLSCAASGFTFNTYAMNWVRQAPGKGLEWVARIRSKYNNYATYYADSVKDRFTISRDDSKNSLYLQMNSLKTEDTAVYYCVRHGNFGNSYVSWFAYWGQGTLVTVSSGGCGGGKVAALKEKVAALKEKVAALKEKVAALKE chain 2: QAVVTQEPSLTVSPGGTVTLTCRSSTGAVTTSNYANWVQQKPGQAPRGLIGGTNKRAPWTPARFSGSLLGGKAALTITGAQAEDEADYYCALWYSNLWVFGGGTKLTVLGGGGSGGGGEVQLVQSGAEVKKPGASVKVSCKASGYTFTSYGISWVRQAPGQGLEWMGWISAYNGNTNYAQKLQGRVTMTTDTSTSTAYMELRSLRSDDTAVYYCATIDTASAFDIWGQGTMVTVSSGGCGGGEVAALEKEVAALEKEVAALEKEVAALEK |
| 17.7 | 0.00403 | 228000 | 33 EK-DART (bispecific antibody) chain 1: QSVLTQPPSVSAAPGQKVTISCSGSSSNIGNNYVSWYQQLPGTAPKLLIYDNNKRPSGIPDRFSGSKSGTSATLGITGLQTGDEADYYCGTWDSSLSAYVFGTGTKVTVLGGGSGGGGEVQLVESGGGLVQPGGSLRLSCAASGFTFNTYAMNWVRQAPGKGLEWVARIRSKYNNYATYYADSVKDRFTISRDDSKNSLYLQMNSLKTEDTAVYYCVRHGNFGNSYVSWFAYWGQGTLVTVSSGGCGGGKVAALKEKVAALKEKVAALKEKVAALKE chain 2: QAVVTQEPSLTVSPGGTVTLTCRSSTGAVTTSNYANWVQQKPGQAPRGLIGGTNKRAPWTPARFSGSLLGGKAALTITGAQAEDEADYYCALWYSNLWVFGGGTKLTVLGGGGSGGGGQMQLVQSGAEVKKPGASVKVSCKASGYTFTSYGISWVRQAPGQGLEWMGWISAYNGNTNYAQKLQGRVTMTTDTSTSTAYMELRSLRSDDTAVYYCALIGSGVAFDIWGQGTMVTVSSGGCGGGEVAALEKEVAALEKEVAALEKEVAALEK |
